Among the data in article PMC3985463 are Kd values, retold here.

This data set concerns the target His6-UP1 C43S/C175S (hnRNP A1 UP1 domain; ITC) (Homo sapiens, UniProt P09651 1-196, C43S;C175S). The data set is described as follows: ITC. For orientation: Isothermal titration calorimetry measures the heat released or taken up as one component is titrated into another.

Chain of His6-UP1 C43S/C175S (hnRNP A1 UP1 domain; ITC) (P09651 1-196 C43S/C175S): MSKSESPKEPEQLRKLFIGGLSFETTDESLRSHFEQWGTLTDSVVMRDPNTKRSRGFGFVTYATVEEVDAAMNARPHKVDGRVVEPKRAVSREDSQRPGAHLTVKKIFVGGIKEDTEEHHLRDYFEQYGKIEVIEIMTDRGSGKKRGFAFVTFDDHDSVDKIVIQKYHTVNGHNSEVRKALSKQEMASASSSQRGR

GAUUAG (ssRNA) [ESS3b loop] came in with a dissociation constant (Kd) of 4.17 ± 0.421 µM.

A word on the Kd: it is the free concentration of one partner at which half of the binding sites on the other are occupied at equilibrium, for simple one-to-one binding.
